# Tested on: T1, BDD FVIII mutein S2186C
# T1 sequence: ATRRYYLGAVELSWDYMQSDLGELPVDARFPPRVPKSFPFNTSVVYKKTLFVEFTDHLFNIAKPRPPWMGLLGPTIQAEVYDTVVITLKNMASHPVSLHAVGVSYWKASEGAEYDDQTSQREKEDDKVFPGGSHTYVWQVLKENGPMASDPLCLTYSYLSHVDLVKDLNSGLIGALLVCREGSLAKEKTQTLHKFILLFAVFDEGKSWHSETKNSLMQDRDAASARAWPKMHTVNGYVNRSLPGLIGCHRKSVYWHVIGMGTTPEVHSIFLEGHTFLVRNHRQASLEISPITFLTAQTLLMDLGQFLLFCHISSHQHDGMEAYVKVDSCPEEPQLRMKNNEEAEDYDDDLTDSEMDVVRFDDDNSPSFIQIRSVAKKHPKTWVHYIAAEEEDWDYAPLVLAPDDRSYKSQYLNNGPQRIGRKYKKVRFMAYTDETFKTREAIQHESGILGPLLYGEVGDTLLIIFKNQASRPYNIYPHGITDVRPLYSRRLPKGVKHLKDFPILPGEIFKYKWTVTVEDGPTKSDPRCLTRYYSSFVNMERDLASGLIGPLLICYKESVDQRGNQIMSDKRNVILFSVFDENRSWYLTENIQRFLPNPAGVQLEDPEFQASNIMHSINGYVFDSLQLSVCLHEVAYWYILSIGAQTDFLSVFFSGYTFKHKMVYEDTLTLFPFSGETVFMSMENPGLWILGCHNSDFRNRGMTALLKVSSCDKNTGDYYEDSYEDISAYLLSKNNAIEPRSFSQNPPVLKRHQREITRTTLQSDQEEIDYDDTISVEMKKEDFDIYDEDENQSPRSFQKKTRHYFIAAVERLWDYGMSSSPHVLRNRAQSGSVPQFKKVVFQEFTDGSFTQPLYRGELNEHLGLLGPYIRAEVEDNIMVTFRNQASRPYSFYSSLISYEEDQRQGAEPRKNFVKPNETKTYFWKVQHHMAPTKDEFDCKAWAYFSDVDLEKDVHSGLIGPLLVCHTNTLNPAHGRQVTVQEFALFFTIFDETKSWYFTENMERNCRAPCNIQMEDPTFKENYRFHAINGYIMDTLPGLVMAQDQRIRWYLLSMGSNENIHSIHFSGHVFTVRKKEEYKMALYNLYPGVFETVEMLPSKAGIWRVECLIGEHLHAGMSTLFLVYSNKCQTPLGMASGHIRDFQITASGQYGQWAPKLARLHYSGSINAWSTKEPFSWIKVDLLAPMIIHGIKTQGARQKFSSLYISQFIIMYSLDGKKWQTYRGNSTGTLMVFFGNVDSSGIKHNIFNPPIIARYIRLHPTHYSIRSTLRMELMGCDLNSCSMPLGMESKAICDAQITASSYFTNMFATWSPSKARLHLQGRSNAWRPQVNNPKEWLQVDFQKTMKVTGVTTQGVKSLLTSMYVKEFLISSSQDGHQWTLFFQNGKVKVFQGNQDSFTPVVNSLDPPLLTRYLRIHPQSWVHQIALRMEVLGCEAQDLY
substance,measurement,value
"thrombin (Haematologic Technologies, Essex Junction, Vt.)","thrombin cleavage, SDS-PAGE with silver staining",Thrombin digestion of the muteins and control produced the expected cleavage fragments.

# From patent US20150306234
